How the values were obtained:
[1] = target: murein peptide ligase (Mpl) from Psychrobacter arcticus 273-4 (Psychrobacter arcticus 273-4); assay: SEC-MALS; SEC/SLS: 1x30 cm Superdex 200 coupled with miniDAWN static light scattering and Optilab differential refractive index detectors; 20 mM Tris-HCl pH 8.0, 150 mM sodium chloride, 0.02% sodium azide; molecular weight by ASTRA 5.1.5
[2] = target: murein peptide ligase (Mpl) from Psychrobacter arcticus 273-4 (Psychrobacter arcticus 273-4); assay: SEC; elution of the same Superdex 200 run (refractive index trace) compared with the BioRad gel filtration standard (158, 44 and 17 kDa)
[3] = substrate: Nc1ncnc2c1ncn2[C@@H]1O[C@H](COP(=O)(O)OP(=O)(O)OP(=O)(O)O)[C@@H](O)[C@H]1O; assay: purified protein; type: biochemical, Psychrobacter arcticus; conditions: 0.4 mM UDP-MurNAc, 0.25 mM L-Ala-γ-D-Glu-meso-A2pm, 5 mM MgCl2, pH 8.4, 30 min
[4] = substrate: CC(=O)N[C@H]1[C@@H](OP(=O)(O)OP(=O)(O)OC[C@H]2O[C@@H](n3ccc(=O)[nH]c3=O)[C@H](O)[C@@H]2O)O[C@H](CO)[C@@H](O)[C@@H]1O[C@H](C)C(=O)O; assay: purified protein; type: biochemical, Psychrobacter arcticus; conditions: 5 mM ATP, 0.25 mM L-Ala-γ-D-Glu-meso-A2pm, 5 mM MgCl2, pH 8.4, 30 min, labelled compound
[5] = target: the molecule itself; assay: SEC; 100 µl of 1.3 mg of EcMpl on Superdex 200 10/300 GL; 20 mM potassium phosphate pH 7.4, 0.15 mM NaCl, 0.01% 2-mercaptoethanol; 0.5 ml/min, detection at 280 nm

Molecule: murein peptide ligase (Mpl) from Psychrobacter arcticus 273-4 (enzyme)
- stoichiometry N [1]: 2.09
- stoichiometry N [2]: 4

B1: PaMpl (Psychrobacter arcticus 273-4) (protein)
chain: MHIHILGICGTFMGSLALLARALGHTVTGSDANIYPPMSTQLEQAGVTIEEGYLIAHLQPAPDLVVVGNAMKRGMDVIEYMLDTGLRYTSGPQFLSEQVLQSRHVIAVAGTHGKTTTTTMLAWILHYAGIDAGFLIGGVPLVNTTDTNLQQVFAHSSYLGTEKDDSDNSVNTGYFVIEADEYDSAFFDKRSKFVHYRPRTAILNNLEFDHADIFADLDAIQTQFHHMVRMIPSTGKIIMPAATISLEDTLAKGVWTPIWRTSVIDSTISSVRREDSPLENSQAENSSDWQAELISADGSQFTVSFNDNKEATALVNWSMSGLHNVNNALVAIAAAYNIGVSVKTACAALSAFAGIKRRMELIGDVNDILVFDDFAHHPTAITTTLDGAKKKLADRRLWAIIEPRSNTMKMGIHQDSLAQSATLADHTLWYEPTGLEWGLKEVIDNATIANPSIGSQQVLSSVDDIIKHICTHAKAGDAIVIMSNGGFEGIHQRLLTALGNIVAIL
notes: full length, 505 residues; N-terminal His6 tag (…) kept for kinetics; E. coli MLD2502 (delta mpl); 57,187 Da with tag; dimer in solution by light scattering
- Km [3]: 110 ± 50 µM
- kcat [3]: 4.33 ± 0.333 s⁻¹
- kcat/Km [3]: 40000 ± 18300 M⁻¹ s⁻¹
- Km [4]: 1000 ± 130 µM
- kcat [4]: 4.33 ± 0.333 s⁻¹
- kcat/Km [4]: 4330 ± 650 M⁻¹ s⁻¹

B2: Mpl from Escherichia coli (enzyme, UniProt P37773 1-457, looked up)
chain: MRIHILGICGTFMGGLAMLARQLGHEVTGSDANVYPPMSTLLEKQGIELIQGYDASQLEPQPDLVIIGNAMTRGNPCVEAVLEKNIPYMSGPQWLHDFVLRDRWVLAVAGTHGKTTTAGMATWILEQCGYKPGFVIGGVPGNFEVSAHLGESDFFVIEADEYDCAFFDKRSKFVHYCPRTLILNNLEFDHADIFDDLKAIQKQFHHLVRIVPGQGRIIWPENDINLKQTMAMGCWSEQELVGEQGHWQAKKLTTDASEWEVLLDGEKVGEVKWSLVGEHNMHNGLMAIAAARHVGVAPADAANALGSFINARRRLELRGEANGVTVYDDFAHHPTAILATLAALRGKVGGTARIIAVLEPRSNTMKMGICKDDLAPSLGRADEVFLLQPAHIPWQVAEVAEACVQPAHWSGDVDTLADMVVKTAQPGDHILVMSNGGFGGIHQKLLDGLAKKAEAAQ
notes: Mpl (murein peptide ligase, UDP-MurNAc:L-Ala-gamma-D-Glu-meso-A2pm ligase), Escherichia coli; also called EcMpl; E. coli ortholog
- stoichiometry N [5]: 2
